# Test results: PMC10786891, “Massively parallel profiling of RNA-targeting CRISPR-Cas13d”
# B1: target 2 MT 5'PFS GCU 3'PFS UCC (mixed)
# RNA 1: CACCCGUGCAAAAUUGCAGGGGUCUAAAACCUUCUCCAAAUUGUUUCAUCCU
# RNA 2: GGGAAUGGAUCCACAUCUACGAAUUCGCUAGGAUGAAACAAUUUGGAGAAGUCCAGAUCGGAAGAGCACACGU
# B2: target 2 MT 5'PFS AUU 3'PFS UUC (mixed)
# RNA 1: CACCCGUGCAAAAUUGCAGGGGUCUAAAACCUUCUCCAAAUUGUUUCAUCCU
# RNA 2: GGGAAUGGAUCCACAUCUACGAAUUCAUUAGGAUGAAACAAUUUGGAGAAGUUCAGAUCGGAAGAGCACACGU
# B3: target 2 MT 5'PFS AAG 3'PFS AAC (mixed)
# RNA 1: CACCCGUGCAAAAUUGCAGGGGUCUAAAACCUUCUCCAAAUUGUUUCAUCCU
# RNA 2: GGGAAUGGAUCCACAUCUACGAAUUCAAGAGGAUGAAACAAUUUGGAGAAGAACAGAUCGGAAGAGCACACGU
# B4: target 2 MT 5'PFS UUA 3'PFS UAC (mixed)
# RNA 1: CACCCGUGCAAAAUUGCAGGGGUCUAAAACCUUCUCCAAAUUGUUUCAUCCU
# RNA 2: GGGAAUGGAUCCACAUCUACGAAUUCUUAAGGAUGAAACAAUUUGGAGAAGUACAGAUCGGAAGAGCACACGU
# B5: target 2 MT 5'PFS GCU 3'PFS UCG (mixed)
# RNA 1: CACCCGUGCAAAAUUGCAGGGGUCUAAAACCUUCUCCAAAUUGUUUCAUCCU
# RNA 2: GGGAAUGGAUCCACAUCUACGAAUUCGCUAGGAUGAAACAAUUUGGAGAAGUCGAGAUCGGAAGAGCACACGU
# B6: target 2 MT 5'PFS UUA 3'PFS UAG (mixed)
# RNA 1: CACCCGUGCAAAAUUGCAGGGGUCUAAAACCUUCUCCAAAUUGUUUCAUCCU
# RNA 2: GGGAAUGGAUCCACAUCUACGAAUUCUUAAGGAUGAAACAAUUUGGAGAAGUAGAGAUCGGAAGAGCACACGU
# B7: target 1 insG 3' of 2,insG 3' of 2 (mixed)
# RNA 1: CACCCGUGCAAAAAUGCAGGGGUCUAAAACUGAGCGGAUAACCUCUCUAUGG
# RNA 2: GGGAAUGGAUCCACAUCUACGAAUUCGUACCAUAGAGAGGUUAUCCGCUCGGACCGAGAUCGGAAGAGCACACGU
# B8: target 2 MT 5'PFS AGU 3'PFS CUU (mixed)
# RNA 1: CACCCGUGCAAAAUUGCAGGGGUCUAAAACCUUCUCCAAAUUGUUUCAUCCU
# RNA 2: GGGAAUGGAUCCACAUCUACGAAUUCAGUAGGAUGAAACAAUUUGGAGAAGCUUAGAUCGGAAGAGCACACGU
# B9: target 2 MT 5'PFS AUU 3'PFS UUA (mixed)
# RNA 1: CACCCGUGCAAAAUUGCAGGGGUCUAAAACCUUCUCCAAAUUGUUUCAUCCU
# RNA 2: GGGAAUGGAUCCACAUCUACGAAUUCAUUAGGAUGAAACAAUUUGGAGAAGUUAAGAUCGGAAGAGCACACGU
# B10: target 2 MT 5'PFS UUA 3'PFS UAU (mixed)
# RNA 1: CACCCGUGCAAAAUUGCAGGGGUCUAAAACCUUCUCCAAAUUGUUUCAUCCU
# RNA 2: GGGAAUGGAUCCACAUCUACGAAUUCUUAAGGAUGAAACAAUUUGGAGAAGUAUAGAUCGGAAGAGCACACGU
# B11: target 2 MT 5'PFS AUC 3'PFS CGA (mixed)
# RNA 1: CACCCGUGCAAAAUUGCAGGGGUCUAAAACCUUCUCCAAAUUGUUUCAUCCU
# RNA 2: GGGAAUGGAUCCACAUCUACGAAUUCAUCAGGAUGAAACAAUUUGGAGAAGCGAAGAUCGGAAGAGCACACGU
# B12: target 2 MT 5'PFS GCU 3'PFS UCU (mixed)
# RNA 1: CACCCGUGCAAAAUUGCAGGGGUCUAAAACCUUCUCCAAAUUGUUUCAUCCU
# RNA 2: GGGAAUGGAUCCACAUCUACGAAUUCGCUAGGAUGAAACAAUUUGGAGAAGUCUAGAUCGGAAGAGCACACGU
# B13: target 2 MT 5'PFS GUC 3'PFS UUA (mixed)
# RNA 1: CACCCGUGCAAAAUUGCAGGGGUCUAAAACCUUCUCCAAAUUGUUUCAUCCU
# RNA 2: GGGAAUGGAUCCACAUCUACGAAUUCGUCAGGAUGAAACAAUUUGGAGAAGUUAAGAUCGGAAGAGCACACGU
# B14: target 2 MT 5'PFS GGC 3'PFS UGU (mixed)
# RNA 1: CACCCGUGCAAAAUUGCAGGGGUCUAAAACCUUCUCCAAAUUGUUUCAUCCU
# RNA 2: GGGAAUGGAUCCACAUCUACGAAUUCGGCAGGAUGAAACAAUUUGGAGAAGUGUAGAUCGGAAGAGCACACGU
# B15: target 2 MT 5'PFS GUC 3'PFS UUC (mixed)
# RNA 1: CACCCGUGCAAAAUUGCAGGGGUCUAAAACCUUCUCCAAAUUGUUUCAUCCU
# RNA 2: GGGAAUGGAUCCACAUCUACGAAUUCGUCAGGAUGAAACAAUUUGGAGAAGUUCAGAUCGGAAGAGCACACGU
# B16: target 2 MT 5'PFS GUC 3'PFS UUU (mixed)
# RNA 1: CACCCGUGCAAAAUUGCAGGGGUCUAAAACCUUCUCCAAAUUGUUUCAUCCU
# RNA 2: GGGAAUGGAUCCACAUCUACGAAUUCGUCAGGAUGAAACAAUUUGGAGAAGUUUAGAUCGGAAGAGCACACGU
# B17: target 2 MT 5'PFS CUC 3'PFS UCG (mixed)
# RNA 1: CACCCGUGCAAAAUUGCAGGGGUCUAAAACCUUCUCCAAAUUGUUUCAUCCU
# RNA 2: GGGAAUGGAUCCACAUCUACGAAUUCCUCAGGAUGAAACAAUUUGGAGAAGUCGAGAUCGGAAGAGCACACGU
# B18: target 1 insG 3' of 1,insU 3' of 1 (mixed)
# RNA 1: CACCCGUGCAAAAAUGCAGGGGUCUAAAACUGAGCGGAUAACCUCUCUAUGG
# RNA 2: GGGAAUGGAUCCACAUCUACGAAUUCGUACCAUAGAGAGGUUAUCCGCUCAGUCCGAGAUCGGAAGAGCACACGU
# B19: target 2 MT 5'PFS GGC 3'PFS UGA (mixed)
# RNA 1: CACCCGUGCAAAAUUGCAGGGGUCUAAAACCUUCUCCAAAUUGUUUCAUCCU
# RNA 2: GGGAAUGGAUCCACAUCUACGAAUUCGGCAGGAUGAAACAAUUUGGAGAAGUGAAGAUCGGAAGAGCACACGU
# B20: target 2 MT 5'PFS CCC 3'PFS UCC (mixed)
# RNA 1: CACCCGUGCAAAAUUGCAGGGGUCUAAAACCUUCUCCAAAUUGUUUCAUCCU
# RNA 2: GGGAAUGGAUCCACAUCUACGAAUUCCCCAGGAUGAAACAAUUUGGAGAAGUCCAGAUCGGAAGAGCACACGU
# B21: target 2 MT 5'PFS CAU 3'PFS UGA (mixed)
# RNA 1: CACCCGUGCAAAAUUGCAGGGGUCUAAAACCUUCUCCAAAUUGUUUCAUCCU
# RNA 2: GGGAAUGGAUCCACAUCUACGAAUUCCAUAGGAUGAAACAAUUUGGAGAAGUGAAGAUCGGAAGAGCACACGU
# B22: target 2 MT 5'PFS AUA 3'PFS CGC (mixed)
# RNA 1: CACCCGUGCAAAAUUGCAGGGGUCUAAAACCUUCUCCAAAUUGUUUCAUCCU
# RNA 2: GGGAAUGGAUCCACAUCUACGAAUUCAUAAGGAUGAAACAAUUUGGAGAAGCGCAGAUCGGAAGAGCACACGU
# B23: target 2 MT 5'PFS CAU 3'PFS UGC (mixed)
# RNA 1: CACCCGUGCAAAAUUGCAGGGGUCUAAAACCUUCUCCAAAUUGUUUCAUCCU
# RNA 2: GGGAAUGGAUCCACAUCUACGAAUUCCAUAGGAUGAAACAAUUUGGAGAAGUGCAGAUCGGAAGAGCACACGU
# B24: target 2 MT 5'PFS AUA 3'PFS CGA (mixed)
# RNA 1: CACCCGUGCAAAAUUGCAGGGGUCUAAAACCUUCUCCAAAUUGUUUCAUCCU
# RNA 2: GGGAAUGGAUCCACAUCUACGAAUUCAUAAGGAUGAAACAAUUUGGAGAAGCGAAGAUCGGAAGAGCACACGU
# B25: target 2 MT 5'PFS CAU 3'PFS UGU (mixed)
# RNA 1: CACCCGUGCAAAAUUGCAGGGGUCUAAAACCUUCUCCAAAUUGUUUCAUCCU
# RNA 2: GGGAAUGGAUCCACAUCUACGAAUUCCAUAGGAUGAAACAAUUUGGAGAAGUGUAGAUCGGAAGAGCACACGU
# B26: target 2 MT 5'PFS CGA 3'PFS CGC (mixed)
# RNA 1: CACCCGUGCAAAAUUGCAGGGGUCUAAAACCUUCUCCAAAUUGUUUCAUCCU
# RNA 2: GGGAAUGGAUCCACAUCUACGAAUUCCGAAGGAUGAAACAAUUUGGAGAAGCGCAGAUCGGAAGAGCACACGU
# B27: target 2 MT 5'PFS CGA 3'PFS CGA (mixed)
# RNA 1: CACCCGUGCAAAAUUGCAGGGGUCUAAAACCUUCUCCAAAUUGUUUCAUCCU
# RNA 2: GGGAAUGGAUCCACAUCUACGAAUUCCGAAGGAUGAAACAAUUUGGAGAAGCGAAGAUCGGAAGAGCACACGU
# B28: target 2 MT 5'PFS ACU 3'PFS CCA (mixed)
# RNA 1: CACCCGUGCAAAAUUGCAGGGGUCUAAAACCUUCUCCAAAUUGUUUCAUCCU
# RNA 2: GGGAAUGGAUCCACAUCUACGAAUUCACUAGGAUGAAACAAUUUGGAGAAGCCAAGAUCGGAAGAGCACACGU
# Target: T1, EsCas13d, nuclease-dead (Eubacterium siraeum, UniProt B0MS50, R295A;H300A;R849A;H854A)
# T1 sequence: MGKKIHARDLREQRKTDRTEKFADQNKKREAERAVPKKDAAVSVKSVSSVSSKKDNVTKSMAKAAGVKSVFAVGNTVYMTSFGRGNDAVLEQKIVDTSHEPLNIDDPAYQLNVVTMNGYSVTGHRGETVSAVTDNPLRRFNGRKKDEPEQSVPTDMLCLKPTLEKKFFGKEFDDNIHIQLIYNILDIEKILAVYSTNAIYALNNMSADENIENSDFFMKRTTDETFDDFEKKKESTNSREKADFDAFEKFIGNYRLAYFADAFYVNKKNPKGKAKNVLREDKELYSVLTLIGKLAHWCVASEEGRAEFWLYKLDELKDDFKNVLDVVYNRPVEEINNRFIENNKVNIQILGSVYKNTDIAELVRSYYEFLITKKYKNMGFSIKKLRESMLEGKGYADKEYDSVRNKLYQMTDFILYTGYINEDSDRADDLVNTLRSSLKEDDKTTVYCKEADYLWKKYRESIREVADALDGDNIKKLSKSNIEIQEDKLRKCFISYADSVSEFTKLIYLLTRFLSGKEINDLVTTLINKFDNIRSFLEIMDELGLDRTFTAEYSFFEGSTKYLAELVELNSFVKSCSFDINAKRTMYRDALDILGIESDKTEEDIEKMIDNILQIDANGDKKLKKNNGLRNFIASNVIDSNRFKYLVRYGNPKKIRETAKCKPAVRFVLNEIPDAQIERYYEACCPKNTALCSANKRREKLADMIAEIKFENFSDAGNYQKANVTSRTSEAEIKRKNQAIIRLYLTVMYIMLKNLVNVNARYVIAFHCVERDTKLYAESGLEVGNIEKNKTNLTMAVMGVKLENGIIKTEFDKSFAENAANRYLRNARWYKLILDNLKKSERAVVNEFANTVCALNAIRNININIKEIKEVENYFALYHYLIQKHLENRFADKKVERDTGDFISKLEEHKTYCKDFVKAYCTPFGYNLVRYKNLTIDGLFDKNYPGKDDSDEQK
# Test: crRNA (strand 1, pre-loaded); Mg2+; 40 mM Tris-HCl pH 7.5, 150 mM NaCl, 6 mM MgCl2, 1 mM DTT, 0.1% Tween-20, 0.2 mg/ml BSA; 25 C; 10 min per concentration, then washed
# Details: tags: His6-TwinStrep-SUMO cleaved; N-terminal SNAP kept (SNAP-Surface 488); label: 3' end held by stalled T7 RNA polymerase
row,Binder,Kd
1,B1,40 ± 8 nM
2,B2,23 ± 5 nM
3,B3,3.1 ± 1 nM
4,B4,37 ± 7 nM
5,B5,18 ± 4 nM
6,B6,22 ± 5 nM
7,B7,7.5 ± 0.5 nM
8,B8,24 ± 8 nM
9,B9,13.5 ± 2.1 nM
10,B10,15.9 ± 2.4 nM
11,B11,61 ± 20 nM
12,B12,34 ± 11 nM
13,B13,31 ± 6 nM
14,B14,27.8 ± 3.5 nM
15,B15,~47 nM
16,B16,58 ± 15 nM
17,B17,4 ± 0.8 nM
18,B18,10.5 ± 1.2 nM
19,B19,18 ± 4 nM
20,B20,2.1 ± 0.5 nM
21,B21,4.5 ± 1.4 nM
22,B22,7.8 ± 0.8 nM
23,B23,3.1 ± 0.5 nM
24,B24,9.5 ± 2.1 nM
25,B25,4.4 ± 0.5 nM
26,B26,5.6 ± 1.5 nM
27,B27,5.3 ± 1 nM
28,B28,7.3 ± 1.8 nM
